The record followed here is PMC9352680, “A comprehensive thermodynamic model for RNA binding by the Saccharomyces cerevisiae Pumilio protein PUF4”.

The target in this data set is T1, PUF4 RNA-binding domain (Saccharomyces cerevisiae, UniProt P25339 537-888).
T1 sequence: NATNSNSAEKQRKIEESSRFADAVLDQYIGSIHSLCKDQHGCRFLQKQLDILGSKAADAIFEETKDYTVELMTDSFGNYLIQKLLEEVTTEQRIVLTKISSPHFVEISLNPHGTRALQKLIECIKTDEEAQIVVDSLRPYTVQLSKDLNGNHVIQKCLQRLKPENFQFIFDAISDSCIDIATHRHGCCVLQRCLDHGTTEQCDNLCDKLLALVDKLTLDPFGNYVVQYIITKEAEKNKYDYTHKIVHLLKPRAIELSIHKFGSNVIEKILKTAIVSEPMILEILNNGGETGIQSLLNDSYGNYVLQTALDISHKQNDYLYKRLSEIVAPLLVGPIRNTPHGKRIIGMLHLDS
Briefly: Mg; RNA-MaP; 20 mM Na-HEPES pH 7.4, 30 mM KOAc, 0.75 mM MgCl2, 0.1% Tween-20, 5% glycerol, 0.1 mg/mL BSA, 2 mM DTT; 25 C; 0.0125-409.6 nM protein. To be noted: tags: N-His6-TEV cleaved; C-SNAP kept, Cy3B-labelled; label: tethered on chip by stalled RNA polymerase.
Consider UCUCUUUGUAAAUCCCUCUCUU (ssRNA) [Ic_S1_P5E.1_K5.1_C5.1_H5.1_A5.1_[T5A]_[T6A]_[A7T]_F5.1_[T8C]_[T9C]_[A10C]_T5.1], for which the dissociation constant Kd (as a rule, the constant that tells how readily two partners part at equilibrium) worked out at 240 nM. Regarding UCUCUUUGUAUACGGCUCUCUU (ssRNA) [Ic_S1_P5E.1_K5.1_C5.1_H5.1_A5.1_[T6A]_[A7C]_F5.1_[T8G]_[T9G]_[A10C]_T5.1], binding was characterised by a dissociation constant (Kd) of 460 nM. Against the preceding molecule, the Kd is about 1.9-fold higher. In the case of UCUCUUUGUAUCCUAUUCUCUU (ssRNA) [Ic_S1_P5E.1_K5.1_C5.1_H5.1_A5.1_[T6C]_[A7C]_F5.1_[T9A]_[A10T]_T5.1] it was 5.11 nM; in that of UCUCUUUGUAUACCGGUCUCUU (ssRNA) [Ic_S1_P5E.1_K5.1_C5.1_H5.1_A5.1_[T6A]_[A7C]_F5.1_[T8C]_[T9G]_[A10G]_T5.1], 470 nM; in that of UCUCUUUGUACCUCCCUCUCUU (ssRNA) [Ic_S1_P5E.1_K5.1_C5.1_H5.1_A5.1_[T5C]_[T6C]_[A7T]_F5.1_[T8C]_[T9C]_[A10C]_T5.1], 414 nM. Take UCUCUUUGUAUAUUGUCUCUU (ssRNA) [Ic_S1_P4E.1_K4.1_C4.1_H4.1_A4.1_F4.1_[A9G]_T4.1]: the dissociation constant Kd worked out at 3.06 nM. In the case of UCUCUUUGUACUGUAAUCUCUU (ssRNA) [Ic_S1_P5E.1_K5.1_C5.1_H5.1_A5.1_[T5C]_[A7G]_F5.1_[T9A]_T5.1] it was 7.89 nM; in that of UCUCUUUGUAUUUAAAUCUCUU (ssRNA) [Ic_S1_P5E.1_K5.1_C5.1_H5.1_A5.1_[A7T]_F5.1_[T8A]_[T9A]_T5.1], 106 nM. As for UCUCUUGGUAUUUAUCUCUU (ssRNA) [Ib_S1_P3E.1_K3.1_C3.1_H3.1_[T1G]_A3.1_[A6T]_F3.1_T3.1], the Kd is over 2300 nM. In the case of UCUCUUUGUACAAUAGUCUCUU (ssRNA) [Ic_S1_P5E.1_K5.1_C5.1_H5.1_A5.1_[T5C]_[T6A]_F5.1_[T9A]_[A10G]_T5.1] it was 0.742 nM; in that of UCUCUUUGUAAGUAAAUCUCUU (ssRNA) [Ic_S1_P5E.1_K5.1_C5.1_H5.1_A5.1_[T5A]_[T6G]_[A7T]_F5.1_[T8A]_[T9A]_T5.1], 2150 nM; in that of UCUCUUUGUAUCCAUUUCUCUU (ssRNA) [Ic_S1_P5E.1_K5.1_C5.1_H5.1_A5.1_[T6C]_[A7C]_F5.1_[T8A]_[A10T]_T5.1], 119 nM.

With UCUCUUUGUACGACCAUCUCUU (ssRNA) [Ic_S1_P5E.1_K5.1_C5.1_H5.1_A5.1_[T5C]_[T6G]_F5.1_[T8C]_[T9C]_T5.1], binding was put at a Kd of 1000 nM. Take UCUCUUCGUAUGUAUCUCUU (ssRNA) [Ib_S1_P3E.1_K3.1_C3.1_H3.1_[T1C]_A3.1_[A6G]_F3.1_T3.1]: binding was put at a Kd of 932 nM. In the case of UCUCUUUGUACUUCCCUCUCUU (ssRNA) [Ic_S1_P5E.1_K5.1_C5.1_H5.1_A5.1_[T5C]_[A7T]_F5.1_[T8C]_[T9C]_[A10C]_T5.1] it was 782 nM; in that of UCUCUUUGUACGUCUGUCUCUU (ssRNA) [Ic_S1_P5E.1_K5.1_C5.1_H5.1_A5.1_[T5C]_[T6G]_[A7T]_F5.1_[T8C]_[A10G]_T5.1], 697 nM.

For the molecule UCUCUUUGUAUUGCCUUCUCUU (ssRNA) [Ic_S1_P5E.1_K5.1_C5.1_H5.1_A5.1_[A7G]_F5.1_[T8C]_[T9C]_[A10T]_T5.1], the Kd is 652 nM. UCUCUUUGUAACGGCCUCUCUU (ssRNA) [Ic_S1_P5E.1_K5.1_C5.1_H5.1_A5.1_[T5A]_[T6C]_[A7G]_F5.1_[T8G]_[T9C]_[A10C]_T5.1] showed an equilibrium dissociation constant (Kd) of over 2300 nM. The molecule UCUCUUUGUAAAACACUCUCUU (ssRNA) [Ic_S1_P5E.1_K5.1_C5.1_H5.1_A5.1_[T5A]_[T6A]_F5.1_[T8C]_[T9A]_[A10C]_T5.1] had a Kd of 56.4 nM. In the case of UCUCUUUGUAUAAACGUCUCUU (ssRNA) [Ic_S1_P5E.1_K5.1_C5.1_H5.1_A5.1_[T6A]_F5.1_[T8A]_[T9C]_[A10G]_T5.1] it was 378 nM. With UCUCUUUGUACUCCCUUCUCUU (ssRNA) [Ic_S1_P5E.1_K5.1_C5.1_H5.1_A5.1_[T5C]_[A7C]_F5.1_[T8C]_[T9C]_[A10T]_T5.1], the affinity, expressed as Kd, was 496 nM. The Kd values of the last two molecules are within 1.5-fold of each other.

Regarding UCUCUUUGUAACUAAAUCUCUU (ssRNA) [Ic_S1_P5E.1_K5.1_C5.1_H5.1_A5.1_[T5A]_[T6C]_[A7T]_F5.1_[T8A]_[T9A]_T5.1], the affinity, expressed as Kd, was 506 nM. This Kd and that of the molecule before are within 1.5-fold of each other. Turning to UCUCUUUGUAUAGCAUUCUCUU (ssRNA) [Ic_S1_P5E.1_K5.1_C5.1_H5.1_A5.1_[T6A]_[A7G]_F5.1_[T8C]_[T9A]_[A10T]_T5.1], the Kd turned out to be 32.4 nM. In the case of UCUCUUUGUAUCGCUGUCUCUU (ssRNA) [Ic_S1_P5E.1_K5.1_C5.1_H5.1_A5.1_[T6C]_[A7G]_F5.1_[T8C]_[A10G]_T5.1] it was 978 nM; in that of UCUCUUUGUAGCUACGUCUCUU (ssRNA) [Ic_S1_P5E.1_K5.1_C5.1_H5.1_A5.1_[T5G]_[T6C]_[A7T]_F5.1_[T8A]_[T9C]_[A10G]_T5.1], over 2300 nM.
